Test results from paper PMC2935968 (2010).

Target: T1, CHORDII domain of cress (Arabidopsis thaliana) Rar1 (Arabidopsis thaliana, UniProt Q9SE33 149-221)
T1 chain: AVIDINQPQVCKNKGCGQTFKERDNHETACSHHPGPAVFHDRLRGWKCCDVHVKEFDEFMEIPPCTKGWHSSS
Assay: ITC

Kd: 22.3 µM
B1: N-terminal domain of barley (Hordeum vulgare) Hsp90 (domain or fragment)
chain: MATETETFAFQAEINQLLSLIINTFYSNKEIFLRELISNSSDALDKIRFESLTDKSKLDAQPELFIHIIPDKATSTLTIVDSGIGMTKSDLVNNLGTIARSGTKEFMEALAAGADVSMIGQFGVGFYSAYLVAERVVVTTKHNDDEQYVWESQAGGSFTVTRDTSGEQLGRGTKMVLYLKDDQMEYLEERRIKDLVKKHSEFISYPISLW
